# Laboratory results as given in article PMC6930080.
# Biological target: ATP synthase subunit α (Euglena gracilis)
# Experiment: cryo-EM structure; native ATP synthase dimer with bound IF1, co-purified as one complex from E. gracilis mitochondria; 25 mM HEPES/KOH pH 7.5, 25 mM KCl, 15 mM MgOAc2, 2 mM DTT, 0.05% β-DDM; maps: membrane region 2.82 Å, F1/c-ring rotational states 1-3 3.04, 3.14 and 3.92 Å, rotor 3.3 Å, peripheral stalk tip 3.82 Å, consensus dimer 4.32 Å
substance,measurement,value
ATPase inhibitory factor 1 (IF1) (natural protein),percent of particles of rotational state 3 that contain IF1,34%
